Data reported in article PMC4975481.

B1: DSTL096 (VHH)
VHH: RVDQTPRSVTKETGESLTINCVLRDASYAVGSTCWYRKKSGSTNEESISKGGRYVETVNSGSKSFSLRINDLTVEDGGTYRCGVSTYNWCGVRGLGCVHGACGDGTAVTVN
B2: SK to RI (VHH)
VHH: TRVDQTPRTATKETGESLTINCVLRDASYAVGSTCWFRKNPGTTDEERISIGGRYVESVNKGAKSFSLRIKDLTVADSATYYCGVSTYNWCGVRGLGCVHGACGDGTALTVK
B3: E to W (VHH)
VHH: TRVDQTPRTATKETGESLTINCVLRDASYAVGSTCWFRKNPGTTDWESISKGGRYVESVNKGAKSFSLRIKDLTVADSATYYCGVSTYNWCGVRGLGCVHGACGDGTALTVK
B4: ES to WR (VHH)
VHH: TRVDQTPRTATKETGESLTINCVLRDASYAVGSTCWFRKNPGTTDWERISKGGRYVESVNKGAKSFSLRIKDLTVADSATYYCGVSTYNWCGVRGLGCVHGACGDGTALTVK
B5: S to R (VHH)
VHH: TRVDQTPRTATKETGESLTINCVLRDASYAVGSTCWFRKNPGTTDEERISKGGRYVESVNKGAKSFSLRIKDLTVADSATYYCGVSTYNWCGVRGLGCVHGACGDGTALTVK
B6: EK to WI (VHH)
VHH: TRVDQTPRTATKETGESLTINCVLRDASYAVGSTCWFRKNPGTTDWESISIGGRYVESVNKGAKSFSLRIKDLTVADSATYYCGVSTYNWCGVRGLGCVHGACGDGTALTVK
B7: SP15-096-123 (VHH)
VHH: TRVDQTPRTATKETGESLTINCVLRDASYAVGSTCWFRKNPGTTDEESISKGGRYVESVNKGAKSFSLRIKDLTVADSATYYCGVSTYNWCGVRGLGCVHGACGDGTALTVK
B8: K to I (VHH)
VHH: TRVDQTPRTATKETGESLTINCVLRDASYAVGSTCWFRKNPGTTDEESISIGGRYVESVNKGAKSFSLRIKDLTVADSATYYCGVSTYNWCGVRGLGCVHGACGDGTALTVK
B9: SP15-096-13 (VHH)
VHH: TRVDQTPRTATKETGESLTINCVLRDASYAVGSTCWFRKNPGTTDWERISIGGRYVESVNKGAKSFSLRIKDLTVADSATYYCGVSTYNWCGVRGLGCVHGACGDGTALTVK

molecular target: Ebola virus nucleoprotein, recombinant construct consisting of the C-terminal portion of NP (Ebola virus (EBOV; formerly the Zaire ebolavirus)); test: SPR; ProteOn XPR36; […] (10 mM acetate pH 5.0); […]; Langmuir model
Sequence (P18272 641-739 limits assumed): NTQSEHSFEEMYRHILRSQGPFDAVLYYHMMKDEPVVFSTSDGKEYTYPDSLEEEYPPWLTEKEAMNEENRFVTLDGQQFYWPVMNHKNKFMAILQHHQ

First: B1
Second: B2
The Kd of the first is 56-fold lower: 0.39 nM for the first, 22 nM for the second. The first binds more tightly here.

First: B3
Second: B4
The Kd of the first is 35-fold lower: 0.34 nM for the first, 12 nM for the second. The first binds more tightly here.

Compared with B5, B6 is 1.6-fold higher in Kd: 2.3 nM for the first, 3.6 nM for the second. The first binds more tightly here.

First: B7
Second: B8
The Kd of the first is 5.9-fold lower: 0.37 nM for the first, 2.2 nM for the second. The first binds more tightly here.

For B9, the Kd was 27 nM.
